From US20110263827A1 (AbbVie / Abbott, published 2011) come the findings set out here.

B1: DVD848 (bispecific antibody)
VH: EVQLLESGGGLVQPGGSLRLSCAASGFTFSHYVMAWVRQAPGKGLEWVSSISSSGGWTLYADSVKGRFTISRDNSKNTLYLQMNSLRAEDTAVYYCTRGLKMATIFDYWGQGTLVTVSSASTKGPQVQLQESGPGLVKPSQTLSLTCTVSGYSISSDFAWNWIRQPPGKGLEWMGYISYSGNTRYQPSLKSRITISRDTSKNQFFLKLNSVTAADTATYYCVTAGRGFPYWGQGTLVTVSS
VL: QSALTQPASVSGSPGQSITISCTGTSSDVGSYNVVSWYQQHPGKAPKLIIYEVSQRPSGVSNRFSGSKSGNTASLTISGLQTEDEADYYCCSYAGSSIFVIFGGGTKVTVLGQPKAAPSVTLFPPDIQMTQSPSSMSVSVGDRVTITCHSSQDINSNIGWLQQKPGKSFKGLIYHGTNLDDGVPSRFSGSGSGTDYTLTISSLQPEDFATYYCVQYAQFPWTFGGGTKLEIKR
notes: DVD-Ig; HC S, LC L; variable parts only
B2: DVD756 (bispecific antibody)
VH: B1 VH
VL: QSALTQPASVSGSPGQSITISCTGTSSDVGSYNVVSWYQQHPGKAPKLIIYEVSQRPSGVSNRFSGSKSGNTASLTISGLQTEDEADYYCCSYAGSSIFVIFGGGTKVTVLGQPKAAPDIQMTQSPSSMSVSVGDRVTITCHSSQDINSNIGWLQQKPGKSFKGLIYHGTNLDDGVPSRFSGSGSGTDYTLTISSLQPEDFATYYCVQYAQFPWTFGGGTKLEIKR
notes: DVD-Ig; HC S, LC S; variable parts only
B3: DVD779 (bispecific antibody)
VH: QVQLQESGPGLVKPSQTLSLTCTVSGYSISSDFAWNWIRQPPGKGLEWMGYISYSGNTRYQPSLKSRITISRDTSKNQFFLKLNSVTAADTATYYCVTAGRGFPYWGQGTLVTVSSASTKGPSVFPLAPEVQLVESGGGLVQPGGSLRLSCAASGYTFTNYGMNWVRQAPGKGLEWVGWINTYTGEPTYAADFKRRFTFSLDTSKSTAYLQMNSLRAEDTAVYYCAKYPHYYGSSHWYFDVWGQGTLVTVSS
VL: DIQMTQSPSSMSVSVGDRVTITCHSSQDINSNIGWLQQKPGKSFKGLIYHGTNLDDGVPSRFSGSGSGTDYTLTISSLQPEDFATYYCVQYAQFPWTFGGGTKLEIKRTVAAPSVFIFPPDIQMTQSPSSLSASVGDRVTITCSASQDISNYLNWYQQKPGKAPKVLIYFTSSLHSGVPSRFSGSGSGTDFTLTISSLQPEDFATYYCQQYSTVPWTFGQGTKVEIKR
notes: DVD-Ig; HC L, LC L; variable parts only
B4: DVD809 (bispecific antibody)
VH: B3 VH
VL: DIQMTQSPSSMSVSVGDRVTITCHSSQDINSNIGWLQQKPGKSFKGLIYHGTNLDDGVPSRFSGSGSGTDYTLTISSLQPEDFATYYCVQYAQFPWTFGGGTKLEIKRTVAAPDIQMTQSPSSLSASVGDRVTITCSASQDISNYLNWYQQKPGKAPKVLIYFTSSLHSGVPSRFSGSGSGTDFTLTISSLQPEDFATYYCQQYSTVPWTFGQGTKVEIKR
notes: DVD-Ig; HC L, LC S; variable parts only
B5: DVD839 (bispecific antibody)
VH: QVQLQESGPGLVKPSQTLSLTCTVSGYSISSDFAWNWIRQPPGKGLEWMGYISYSGNTRYQPSLKSRITISRDTSKNQFFLKLNSVTAADTATYYCVTAGRGFPYWGQGTLVTVSSASTKGPEVQLVESGGGLVQPGGSLRLSCAASGYTFTNYGMNWVRQAPGKGLEWVGWINTYTGEPTYAADFKRRFTFSLDTSKSTAYLQMNSLRAEDTAVYYCAKYPHYYGSSHWYFDVWGQGTLVTVSS
VL: B3 VL
notes: as for B1
B6: DVD791 (bispecific antibody)
VH: QVQLQESGPGLVKPSQTLSLTCTVSGYSISSDFAWNWIRQPPGKGLEWMGYISYSGNTRYQPSLKSRITISRDTSKNQFFLKLNSVTAADTATYYCVTAGRGFPYWGQGTLVTVSSASTKGPSVFPLAPEVQLVESGGGLVQPGGSLRLSCAASGFTINASWIHWVRQAPGKGLEWVGAIYPYSGYTNYADSVKGRFTISADTSKNTAYLQMNSLRAEDTAVYYCARWGHSTSPWAMDYWGQGTLVTVSS
VL: DIQMTQSPSSMSVSVGDRVTITCHSSQDINSNIGWLQQKPGKSFKGLIYHGTNLDDGVPSRFSGSGSGTDYTLTISSLQPEDFATYYCVQYAQFPWTFGGGTKLEIKRTVAAPSVFIFPPDIQMTQSPSSLSASVGDRVTITCRASQVIRRSLAWYQQKPGKAPKLLIYAASNLASGVPSRFSGSGSGTDFTLTISSLQPEDFATYYCQQSNTSPLTFGQGTKVEIKR
notes: as for B3
B7: DVD851 (bispecific antibody)
VH: QVQLQESGPGLVKPSQTLSLTCTVSGYSISSDFAWNWIRQPPGKGLEWMGYISYSGNTRYQPSLKSRITISRDTSKNQFFLKLNSVTAADTATYYCVTAGRGFPYWGQGTLVTVSSASTKGPEVQLVESGGGLVQPGGSLRLSCAASGFTINASWIHWVRQAPGKGLEWVGAIYPYSGYTNYADSVKGRFTISADTSKNTAYLQMNSLRAEDTAVYYCARWGHSTSPWAMDYWGQGTLVTVSS
VL: B6 VL
notes: as for B1
B8: DVD821 (bispecific antibody)
VH: B6 VH
VL: DIQMTQSPSSMSVSVGDRVTITCHSSQDINSNIGWLQQKPGKSFKGLIYHGTNLDDGVPSRFSGSGSGTDYTLTISSLQPEDFATYYCVQYAQFPWTFGGGTKLEIKRTVAAPDIQMTQSPSSLSASVGDRVTITCRASQVIRRSLAWYQQKPGKAPKLLIYAASNLASGVPSRFSGSGSGTDFTLTISSLQPEDFATYYCQQSNTSPLTFGQGTKVEIKR
notes: as for B4
B9: DVD789 (bispecific antibody)
VH: QVQLQESGPGLVKPSQTLSLTCTVSGYSISSDFAWNWIRQPPGKGLEWMGYISYSGNTRYQPSLKSRITISRDTSKNQFFLKLNSVTAADTATYYCVTAGRGFPYWGQGTLVTVSSASTKGPSVFPLAPEVQLVESGGGLVQPGGSLRLSCAASGFTISDYWIHWVRQAPGKGLEWVAGITPAGGYTYYADSVKGRFTISADTSKNTAYLQMNSLRAEDTAVYYCARFVFFLPYAMDYWGQGTLVTVSS
VL: DIQMTQSPSSMSVSVGDRVTITCHSSQDINSNIGWLQQKPGKSFKGLIYHGTNLDDGVPSRFSGSGSGTDYTLTISSLQPEDFATYYCVQYAQFPWTFGGGTKLEIKRTVAAPSVFIFPPDIQMTQSPSSLSASVGDRVTITCRASQDVSTAVAWYQQKPGKAPKLLIYSASFLYSGVPSRFSGSGSGTDFTLTISSLQPEDFATYYCQQSYTTPPTFGQGTKVEIKR
notes: as for B3
B10: DVD849 (bispecific antibody)
VH: QVQLQESGPGLVKPSQTLSLTCTVSGYSISSDFAWNWIRQPPGKGLEWMGYISYSGNTRYQPSLKSRITISRDTSKNQFFLKLNSVTAADTATYYCVTAGRGFPYWGQGTLVTVSSASTKGPEVQLVESGGGLVQPGGSLRLSCAASGFTISDYWIHWVRQAPGKGLEWVAGITPAGGYTYYADSVKGRFTISADTSKNTAYLQMNSLRAEDTAVYYCARFVFFLPYAMDYWGQGTLVTVSS
VL: B9 VL
notes: as for B1
B11: DVD819 (bispecific antibody)
VH: B9 VH
VL: DIQMTQSPSSMSVSVGDRVTITCHSSQDINSNIGWLQQKPGKSFKGLIYHGTNLDDGVPSRFSGSGSGTDYTLTISSLQPEDFATYYCVQYAQFPWTFGGGTKLEIKRTVAAPDIQMTQSPSSLSASVGDRVTITCRASQDVSTAVAWYQQKPGKAPKLLIYSASFLYSGVPSRFSGSGSGTDFTLTISSLQPEDFATYYCQQSYTTPPTFGQGTKVEIKR
notes: as for B4

In the first assay the target is T1, EGFR (UniProt P00533 25-645, limits assumed, biotinylated).
T1 construct: ELISA antigen; construct not described
Put plainly: direct bind ELISA, C-term VD.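 Further: ELISA with antibody or DVD-Ig preparations applied to target antigen-coated plates for 1 h at room temperature, TMB colour development, absorbance read at 450 nm.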 For orientation: An ELISA detects its analyte on a solid surface through an enzyme-linked reagent.
Broadly, the EC50 is the concentration needed to bring the measured effect to its halfway point. High values mean a need for much substance, low ones an effect from little substance. Take B1: a half-maximal effect (EC50) was put at 0.0167 µM.

Molecule B2 displayed an EC50 of 0.0489 µM.

Another assay addresses T2, VEGF (UniProt P15692-4 27-191, limits assumed, biotinylated).
T2 construct: ELISA antigen
Put plainly: direct bind ELISA, C-term VD.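 Further: ELISA with antibody or DVD-Ig preparations applied to target antigen-coated plates for 1 h at room temperature, TMB colour development, absorbance read at 450 nm.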
For B3, the EC50 was found to be 0.00024 µM. In other words, the sub-nanomolar range.

Molecule B4 gave an EC50 of 0.00023 µM.

Molecule B5 yielded an EC50 of 0.00026 µM.

The molecule B6 yielded a 50% effective concentration (EC50) of 0.0116 µM.

As to B7, the EC50 was 0.0284 µM. This EC50 is about 2.4-fold higher than that of the molecule before.

Consider B8, for which it took 0.0111 µM to reach a half-maximal effect (EC50).

In turn, B9 came in with a concentration giving a half-maximal response (EC50) of 0.046 µM.

In the case of B10, the 50% effective concentration (EC50) came to 0.0596 µM. This EC50 and that of the molecule before are within 1.5-fold of each other.

In turn, B11 showed an EC50 of 0.0364 µM.

Another assay deals with T1, EGFR. Put plainly: direct bind ELISA, N-term VD.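 Further: antibody or DVD-Ig preparations bound to immobilized target antigen on ELISA plates, 1 h at room temperature, TMB detection read as absorbance at 450 nm.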
B3 displayed an EC50 of 0.0106 µM.

Turning to B4, the EC50 amounted to 0.00734 µM.

The molecule B5 had an EC50 of 0.0125 µM. This EC50 lies about 1.7-fold higher than the previous one.

Consider B6, for which the EC50 amounted to 0.00824 µM.

Turning to B7, a half-maximal effect (EC50) was put at 0.00936 µM.

Molecule B8 showed an EC50 of 0.00696 µM. This EC50 and that of the molecule before are within 1.5-fold of each other.

In turn, B9 gave an EC50 of 0.0146 µM.

For the molecule B10, the EC50 was found to be 0.0123 µM.

In turn, B11 came in with a half-maximal effective concentration (EC50) of 0.0122 µM.

For the next assay, the target named is T3, ErbB3 (UniProt P21860 20-643, limits assumed, biotinylated).
T3 construct: ELISA antigen
Put plainly: direct bind ELISA, N-term VD.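 Further: antibody or DVD-Ig preparations bound to immobilized target antigen on ELISA plates, 1 h at room temperature, TMB detection read as absorbance at 450 nm.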
On to B1, for which the EC50 worked out at 0.00323 µM.

Molecule B2 registered an EC50 of 0.00394 µM.
